According to PMC9729208, “Structural basis for the non-self RNA-activated protease activity of the type III-E CRISPR nuclease-protease Craspase”:

Key:
gRAMP;TPR-CHAT = gRAMP;TPR-CHAT (Candidatus Scalindua brodae;Candidatus …, UniProt A0A0B0EGF3;A0A0B0EKL4 1-1717;1-716, |); experiment: cryo-EM (2.6 A); Complex assembly at 1:1.2 (complex:target RNA), 5 mM EDTA, on ice 30 min; SEC in 20 mM Tris-HCl pH 8.0, 150 mM NaCl, 1 mM DTT; settings: protein: recombinant;recombinant; tags: N-terminal His6;C-terminal Strep II; copies: 1;1; single strand; 35 nt modelled in 7Y80 and 7Y84
gRAMP = gRAMP (Candidatus Scalindua brodae, UniProt A0A0B0EGF3 1-1717); experiment: cryo-EM; Complex assembly at 1:1.2 (complex:target RNA), 5 mM EDTA, on ice 30 min; SEC in 20 mM Tris-HCl pH 8.0, 150 mM NaCl, 1 mM DTT; settings: protein: recombinant; tags: N-terminal His6; single strand; 35 nt modelled in 7Y80 and 7Y84

B1: crRNA (ssRNA)
RNA: GACUUAAUGUCACGGUACCCAAUUUUCUGCCCCGGACUCCACGGCUGUUACUAGAG
gRAMP;TPR-CHAT
  binding result: binds
gRAMP
  binding result: binds
